The chains are these.
B2: fluoresceinated cortactin phospho-Y421 peptide (peptide)
peptide: Flu-SSPI[pY]EDAA
B3: Arg SH2 domain, monomeric, cleaved from GST (domain or fragment)
chain: WYHGPVSRSAAEYLLSSLINGSFLVRESESSPGQLSISLRYEGRVYHYRINTTADGKVYVTAESRFSTLAELVHHHSTVADGLVTTLHYPA

The target in experiment [1] is T1, purified recombinant full-length Vav2 (human, UniProt P52735 1-878).
T1 sequence: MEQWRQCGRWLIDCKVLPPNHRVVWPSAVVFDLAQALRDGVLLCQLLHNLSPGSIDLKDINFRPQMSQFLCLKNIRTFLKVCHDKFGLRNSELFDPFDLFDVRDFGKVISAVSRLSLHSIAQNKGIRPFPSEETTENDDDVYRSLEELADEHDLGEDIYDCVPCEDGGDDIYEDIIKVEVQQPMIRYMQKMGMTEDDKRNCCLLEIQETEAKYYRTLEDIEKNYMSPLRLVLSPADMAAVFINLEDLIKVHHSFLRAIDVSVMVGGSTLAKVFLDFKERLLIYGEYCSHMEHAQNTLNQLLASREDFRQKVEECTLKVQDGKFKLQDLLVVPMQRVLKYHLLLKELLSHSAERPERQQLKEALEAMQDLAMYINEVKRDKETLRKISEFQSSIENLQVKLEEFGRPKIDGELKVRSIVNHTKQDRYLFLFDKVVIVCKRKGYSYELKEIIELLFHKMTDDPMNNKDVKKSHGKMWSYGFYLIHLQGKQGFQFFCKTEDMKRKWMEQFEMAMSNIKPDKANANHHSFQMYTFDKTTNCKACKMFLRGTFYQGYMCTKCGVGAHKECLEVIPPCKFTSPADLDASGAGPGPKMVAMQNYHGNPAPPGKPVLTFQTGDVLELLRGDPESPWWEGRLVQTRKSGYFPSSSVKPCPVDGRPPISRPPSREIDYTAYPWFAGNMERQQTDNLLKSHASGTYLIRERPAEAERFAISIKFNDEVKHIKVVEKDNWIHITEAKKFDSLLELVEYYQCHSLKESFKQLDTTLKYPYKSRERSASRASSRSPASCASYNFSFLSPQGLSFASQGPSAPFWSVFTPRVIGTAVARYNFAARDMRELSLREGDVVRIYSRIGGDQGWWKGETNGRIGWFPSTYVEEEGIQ
Briefly: pull-down.

The target in experiment [2] is T2, Nap4/SOCS7 SH2 domain, monomeric, cleaved from GST (human, UniProt O14512 400-509).
T2 sequence: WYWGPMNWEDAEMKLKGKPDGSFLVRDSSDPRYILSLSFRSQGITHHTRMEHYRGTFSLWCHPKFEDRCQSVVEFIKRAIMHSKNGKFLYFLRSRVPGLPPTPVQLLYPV
Kind of experiment: fluorescence polarisation. (In fluorescence polarisation assays a small probe gives low polarisation when free and higher when bound to something large.)

Experiment [3] concerns the target Fyn SH2 domain, monomeric, cleaved from GST (human, UniProt P06241 149-246). Kind of experiment: fluorescence polarisation.
In experiment [4] the target is Brk SH2 domain, monomeric, cleaved from GST (human, UniProt Q13882 78-170). Kind of experiment: fluorescence polarisation.
For experiment [5], the target named is Src SH2 domain, monomeric, cleaved from GST (human, UniProt P12931 151-248). Kind of experiment: fluorescence polarisation.
In experiment [6] the target is Nck1 SH2 domain, monomeric, cleaved from GST (human, UniProt P16333 282-376). Briefly: fluorescence polarisation.
Experiment [7] has as its target B2. Briefly: fluorescence polarisation.
The target of experiment [8] is B3. Kind of experiment: fluorescence polarisation.
The target of experiment [9] is T3, Vav2 SH2 domain, monomeric, cleaved from GST (human, UniProt P52735 673-767).
T3 sequence: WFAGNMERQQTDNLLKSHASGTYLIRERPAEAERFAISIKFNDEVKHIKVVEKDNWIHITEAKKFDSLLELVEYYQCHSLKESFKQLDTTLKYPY
Briefly: fluorescence polarisation.

Non-standard residues stand in square brackets, D forms with d. No end group written: not given here. Flu = 5-carboxyfluorescein, coupled after removal of the final Fmoc group; pY = N[C@@H](Cc1ccc(OP(=O)(O)O)cc1)C(=O)O

By Kd is commonly meant the concentration at which binding is half-saturated.

B1: phosphorylated cortactin (natural protein)
chain: not shown
modifications: phosphotyrosine (confirmed by anti-phosphotyrosine Western blot; sites of this preparation not stated)
As to B1, the dissociation constant Kd in experiment [1] is 1500 ± 300 nM.
As to B2, the binding result in [2], in experiment [3], in experiment [4], in experiment [5] and in [6] was “binds” each time.
Turning to B3, the “fold greater affinity than for the phospho-Y466 peptide” value in experiment [7] was determined as 2.5 fold.

B4: fluoresceinated cortactin phospho-Y482 peptide (peptide)
peptide: Flu-EDDT[pY]DGYE
Turning to B4, the Kd in experiment [8], in experiment [2], in experiment [9], in [3], in experiment [4] and in experiment [5] was > 5 µM throughout. Besides, in experiment [6], the Kd was > 5 µM.

(Values after paper PMC5426849 (Molecular Biology of the Cell, 2017).)
